The target in assay [1] is T1, human CD19 (human, UniProt P15391 20-556).
T1 sequence (looked up): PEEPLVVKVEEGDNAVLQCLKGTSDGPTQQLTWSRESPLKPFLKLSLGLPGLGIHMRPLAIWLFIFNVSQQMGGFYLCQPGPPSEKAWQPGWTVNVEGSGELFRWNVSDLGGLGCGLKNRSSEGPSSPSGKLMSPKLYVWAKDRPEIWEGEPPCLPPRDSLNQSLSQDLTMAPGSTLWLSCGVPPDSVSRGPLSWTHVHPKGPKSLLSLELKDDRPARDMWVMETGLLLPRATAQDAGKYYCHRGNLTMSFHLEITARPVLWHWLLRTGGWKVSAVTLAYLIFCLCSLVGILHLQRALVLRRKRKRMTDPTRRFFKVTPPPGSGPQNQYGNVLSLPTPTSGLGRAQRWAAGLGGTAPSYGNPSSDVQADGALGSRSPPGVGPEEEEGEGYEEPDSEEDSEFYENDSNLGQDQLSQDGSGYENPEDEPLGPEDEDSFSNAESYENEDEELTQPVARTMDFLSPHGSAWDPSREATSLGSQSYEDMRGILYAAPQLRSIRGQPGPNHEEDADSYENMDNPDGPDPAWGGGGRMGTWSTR
Kind of assay: cell-based or functional assay.

Assay [2] addresses T1, human CD19. Kind of assay: flow cytometry on Ramos cells. (In flow cytometry, cells or beads pass a laser one at a time.)
Assay [3] has as its target T2, human CD3 (human, UniProt P07766 23-207).
T2 construct: whole, on cells; On cells CD3 stands as the full CD3/TCR complex; also called CD3 on Jurkat cells
Briefly: flow cytometry on Jurkat cells.

T2 sequence (P07766 23-207): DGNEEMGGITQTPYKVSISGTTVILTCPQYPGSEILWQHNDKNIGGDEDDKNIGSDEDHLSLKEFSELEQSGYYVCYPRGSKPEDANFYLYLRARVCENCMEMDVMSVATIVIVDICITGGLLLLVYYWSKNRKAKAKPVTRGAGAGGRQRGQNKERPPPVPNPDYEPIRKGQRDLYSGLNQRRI

B1: W3438-T3U4.F16-1.uIgG4.SP (bispecific antibody)
light 1: DIVMTQSPDSLAVSLGERATINCKSSQSLLNSRTRKNYLAWYQQKPGQPPKLLIYWASTRQSGVPDRFSGSGSGTDFTLTISSLQAEDVAVYYCTQSHTLRTFGGGTKVEIKPDIQNPDPAVYQLRDSKSSDKSVCLFTDFDSQTQVSQSKDSDVYITDKCVLDMRSMDFKSNSAVAWSQKSDFACANAFQNSIIPEDTFFPSPESS
heavy 1: QVQLVQSGAEVKKPGSSVKVSCKASGFAFTDYYIHWVRQAPGQGLEWMGWISPGNVNTKYNENFKGRVTITADKSTSTAYMELSSLRSEDTAVYYCARDGYSLYYFDYWGQGTLVTVLEDLKNVFPPEVAVFEPSEAEISHTQKATLVCLATGFYPDHVELSWWVNGKEVHSGVCTDPQPLKEQPALQDSRYALSSRLRVSATFWQNPRNHFRCQVQFYGLSENDEWTQDRAKPVTQIVSAEAWGRYGPPCPPCPAPEFLGGPSVFLFPPKPKDTLMISRTPEVTCVVVDVSQEDPEVQFNWYVDGVEVHNAKTKPREEQFNSTYRVVSVLTVLHQDWLNGKEYKCKVSNKGLPSSIEKTISKAKGQPREPQVYTLPPCQEEMTKNQVSLWCLVKGFYPSDIAVEWESNGQPENNYKTTPPVLDSDGSFFLYSRLTVDKSRWQEGNVFSCSVMHEALHNHYTQKSLSLSLGK
light 2: DIQLTQSPSFLSASVGDRVTITCSASSTVNYMHWYQQKPGKAPKLLIYSTSNLASGVPSRFSGSGSGTEFTLTISSLQPEDFATYYCHQWSSYPYTFGQGTKLEIKRTVAAPSVFIFPPSDEQLKSGTASVVCLLNNFYPREAKVQWKVDNALQSGNSQESVTEQDSKDSTYSLSSTLTLSKADYEKHKVYACEVTHQGLSSPVTKSFNRGEC
heavy 2: QMQLVQSGPEVKKPGTSVKVSCKASGYAFTSYNMYWVRQARGQRLEWIGYIDPYNGDTTYNQKFKGRVTITRDMSTSTAYMELSSLRSEDTAVYYCLTTAYAMDYWGQGTLVTVSSASTKGPSVFPLAPCSRSTSESTAALGCLVKDYFPEPVTVSWNSGALTSGVHTFPAVLQSSGLYSLSSVVTVPSSSLGTKTYTCNVDHKPSNTKVDKRVGGGGSGGGGSQMQLVQSGPEVKKPGTSVKVSCKASGYAFTSYNMYWVRQARGQRLEWIGYIDPYNGDTTYNQKFKGRVTITRDMSTSTAYMELSSLRSEDTAVYYCLTTAYAMDYWGQGTLVTVSSASTKGPSVFPLAPCSRSTSESTAALGCLVKDYFPEPVTVSWNSGALTSGVHTFPAVLQSSGLYSLSSVVTVPSSSLGTKTYTCNVDHKPSNTKVDKRVESKYGPPCPPCPAPEFLGGPSVFLFPPKPKDTLMISRTPEVTCVVVDVSQEDPEVQFNWYVDGVEVHNAKTKPREEQFNSTYRVVSVLTVLHQDWLNGKEYKCKVSNKGLPSSIEKTISKAKGQPREPQVCTLPPSQEEMTKNQVSLSCAVKGFYPSDIAVEWESNGQPENNYKTTPPVLDSDGSFFLVSRLTVDKSRWQEGNVFSCSVMHEALHNHYTQKSLSLSLGK
notes: also called WuXiBody
Usually EC50 stands for the concentration giving half of the maximal effect. Low readings indicate higher potency in that assay, high ones lower potency in that assay. In the case of B1, the “cytotoxic activity on Raji cells with CD8+ T cells, EC50” value in assay [1] turned out to be 3.2 nM. For the same molecule, the results for the EC50 in assay [2] and in assay [3] were 1.8 nM and 19.3 nM, respectively.

The values are drawn from patent publication US20200283523A1 (WUXI BIOLOGICS IRELAND, published 2020).
